This data set addresses GST-CjWRKY1 WT (Coptis japonica, UniProt A0ZT25 1-185). The data set can be described thus: EMSA; 0.05 ug/ul poly(dI-dC), 1 mM MgCl2; EMSA: 20 fmol biotin probe, 3 ug protein, 1x LightShift binding buffer, 1 mM MgCl2, 0.5 mM EDTA, 0.05 ug/ul poly(dI-dC), 20 min at 4 C, 5% polyacrylamide gel; pH and salt not given. The note with it: protein: recombinant; tags: N-terminal GST (pGEX-6P-1); label: biotin; blunt. Background: Mobility shift assays separate free from complexed probe on a gel.

Data on one molecule can be found in publication PMC4995487, “Tyrosine phosphorylation and protein degradation control the transcriptional activity of WRKY involved in benzylisoquinoline alkaloid biosynthesis”.

GST-CjWRKY1 WT, sequence (A0ZT25 entry or part of it): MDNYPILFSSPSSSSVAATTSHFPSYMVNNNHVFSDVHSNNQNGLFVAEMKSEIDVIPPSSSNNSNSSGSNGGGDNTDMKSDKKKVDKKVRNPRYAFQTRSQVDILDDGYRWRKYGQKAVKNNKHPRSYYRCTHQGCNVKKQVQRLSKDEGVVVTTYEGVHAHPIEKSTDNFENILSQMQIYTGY

B1: 3x W-box probe (CYP80B2 promoter) (dsDNA)
DNA 1: CTGCTGACTAGCTGACTAGCTGACTAGATGG
DNA 2: CCATCTAGTCAGCTAGTCAGCTAGTCAGCAG
As for B1, the binding result was “binds”.
